This note sets out measurements from patent publication US12269859B2, “Synthetic immune receptors and methods of use thereof” (Angeles Therapeutics, Inc., priority 2016, dated 2025).

The test system of this test is target antigen-expressing cell line. Description: Jurkat NFAT-GFP assay, coculture with target cell lines expressing the respective target antigen (summary Table 10A). The test is classed as cell-based, human. The arrangement: key: The signs +/−, +, 2+ etc. after the name of the cell lines indicate the relative degree of positivity on the Jurkat-NFAT-GFP assay as measured by the % GFP positive cells; +: relative degree of positivity on the Jurkat-NFAT-GFP assay as measured by the % GFP positive cells; 2+: relative degree of positivity on the Jurkat-NFAT-GFP assay as measured by the % GFP positive cells. The conditions noted are these: relative % GFP positive cells; for NFAT-GFP ASSAY Positive Cell lines: HL60: SIR-expressing Jurkat-NFAT-GFP cells cocultured with HL60. Summed up: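 Read-out: % GFP+ cells by FACS. SIR-transduced, puromycin-selected Jurkat NFAT-GFP (IL-2 promoter reporter) cocultured ~4–18 h with target line, E:T ~1:2; parental cells as control; graded +/−, +, 2+ relative to parental.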

B1: 012517-I12 (protein)
chain: MALPVTALLLPLALLLHAARPLEGKPIPNPLLGLDSTGSGEDLKNVFPPEVAVFEPSKAEIAHTQKATLVCLATGFYPDHVELSWWVNGKEVHSGVCTDPQPLKEQPALNDSRYCLSSRLRVSATFWQNPRNHFRCQVQFYGLSENDEWTQDRAKPVTQIVSAEAWGRADCGITSASYHQGVLSATILYEILLGKATLYAVLVSALVLMAMVKRKDSRGRAKRSGSGATNFSLLKQAGDVEENPGPTSMALPVTALLLPLALLLHAARPDIQLTQSPSSLSASVGDRVTITCRASQGISSVLAWYQQKPGKAPKLLIYDASSLESGVPSRFSGSGSGTDFTLTISSLQPEDFATYYCQQFNSSITFGQGTKLEIKRTVAAGGGGSGGGGSGGGGSQVQLVQSGAEVKKPGSSVKVSCKASGGTFSDYAISWVRQAPGQGLEWMGRIIPILGVANYAQKFQGRVTITADKSTRTAYMELSSLRSEDTAVYYCARNWADAFDIWGQGTMVTVSSASTREQKLISEEDGSGIQNPDPAVYQLRDSKSSDKSVCLFTDFDSQTNVSQSKDSDVYITDKCVLDMRSMDFKSNSAVAWSNKSDFACANAFNNSIIPEDTFFPSSDVPCDVKLVEKSFETDTNLNFQNLSVIGFRILLLKVAGFNLLMTLRLWSSRAKRSGSGVKQTLNFDLLKLAGDVESNPGPSRGHMTEYKPTVRLATRDDVPRAVRTLAAAFADYPATRHTVDPDRHIERVTELQELFLTRVGLDIGKVWVADDGAAVAVWTTPESVEAGAVFAEIGPRMAELSGSRLAAQQQMEGLLAPHRPKEPAWFLATVGVSPDHQGKGLGSAVVLPGVEAAERAGVPAFLETSAPRNLPFYERLGFTVTADVEVPEGPRTWCMTRKPGA
As to B1, the “NFAT-GFP ASSAY Positive Cell lines: HL60” value is on record as “HL60 (+/−)”.

B2: 032216-W04 (protein)
chain: MALPVTALLLPLALLLHAARPDEIVLTQSPGSLAVSPGERVTMSCKSSQSVFFSSSQKNYLAWYQQIPGQSPRLLIYWASTRESGVPDRFTGSGSGTDFTLTISSVQPEDLAIYYCHQYLSSRTFGQGTKLEIKRLEGKPIPNPLLGLDSTGSGEDLKNVFPPEVAVFEPSKAEIAHTQKATLVCLATGFYPDHVELSWWVNGKEVHSGVCTDPQPLKEQPALNDSRYCLSSRLRVSATFWQNPRNHFRCQVQFYGLSENDEWTQDRAKPVTQIVSAEAWGRADCGITSASYHQGVLSATILYEILLGKATLYAVLVSALVLMAMVKRKDSRGRAKRSGSGATNFSLLKQAGDVEENPGPTSMDWIWRILFLVGAATGAHSFEQVQLQQPGAEVVKPGASVKMSCKASGYTFTSYYIHWIKQTPGQGLEWVGVIYPGNDDISYNQKFQGKATLTADKSSTTAYMQLSSLTSEDSAVYYCAREVRLRYFDVWGQGTTVTVSSTREQKLISEEDGSGIQNPDPAVYQLRDSKSSDKSVCLFTDFDSQTNVSQSKDSDVYITDKCVLDMRSMDFKSNSAVAWSNKSDFACANAFNNSIIPEDTFFPSSDVPCDVKLVEKSFETDTNLNFQNLSVIGFRILLLKVAGFNLLMTLRLWSSRAKRSGSGVKQTLNFDLLKLAGDVESNPGPSRGHMTEYKPTVRLATRDDVPRAVRTLAAAFADYPATRHTVDPDRHIERVTELQELFLTRVGLDIGKVWVADDGAAVAVWTTPESVEAGAVFAEIGPRMAELSGSRLAAQQQMEGLLAPHRPKEPAWFLATVGVSPDHQGKGLGSAVVLPGVEAAERAGVPAFLETSAPRNLPFYERLGFTVTADVEVPEGPRTWCMTRKPGA
modifications: Polynucleotide encoding a Synthetic Immune Receptor (SIR)
As to B2, the “NFAT-GFP ASSAY Positive Cell lines: HL60” value is reported as “HL60 (+), MOLM13”.

B3: 041216-G06 (protein)
chain: MALPVTALLLPLALLLHAARPDEIVLTQSPGSLAVSPGERVTMSCKSSQSVFFSSSQKNYLAWYQQIPGQSPRLLIYWASTRESGVPDRFTGSGSGTDFTLTISSVQPEDLAIYYCHQYLSSRTFGQGTKLEIKRLEGKPIPNPLLGLDSTGSGEDLKNVFPPEVAVFEPSKAEIAHTQKATLVCLATGFYPDHVELSWWVNGKEVHSGVCTDPQPLKEQPALNDSRYCLSSRLRVSATFWQNPRNHFRCQVQFYGLSENDEWTQDRAKPVTQIVSAEAWGRADCGITSASYHQGVLSATILYEILLGKATLYAVLVSALVLMAMVKRKDSRGRAKRSGSGATNFSLLKQAGDVEENPGPTSMDWIWRILFLVGAATGAHSFEQVQLQQPGAEVVKPGASVKMSCKASGYTFTSYYIHWIKQTPGQGLEWVGVIYPGNDDISYNQKFQGKATLTADKSSTTAYMQLSSLTSEDSAVYYCAREVRLRYFDVWGQGTTVTVSSTREQKLISEEDGSGTPFPSLAPPIMLLVDGKQQMVVVCLVLDVAPPGLDSPIWFSAGNGSALDAFTYGPSPATDGTWTNLAHLSLPSEELASWEPLVCHTGPGAEGHSRSTQPMHLSGEASTARTCPQEPLRGTPGGALWLGVLRLLLFKLLLFDLLLTCSCLCDPAGPLPSPATTTRLRALGSHRLHPATETGGREATSSPRPQPRDRRWGDTPPGRKPGSPVRAKRSGSGVKQTLNFDLLKLAGDVESNPGPSRGHMTEYKPTVRLATRDDVPRAVRTLAAAFADYPATRHTVDPDRHIERVTELQELFLTRVGLDIGKVWVADDGAAVAVWTTPESVEAGAVFAEIGPRMAELSGSRLAAQQQMEGLLAPHRPKEPAWFLATVGVSPDHQGKGLGSAVVLPGVEAAERAGVPAFLETSAPRNLPFYERLGFTVTADVEVPEGPRTWCMTRKPGA
modifications: Polynucleotide encoding a Synthetic Immune Receptor (SIR)
For B3, the “NFAT-GFP ASSAY Positive Cell lines: HL60” value is “+”. Moreover, the “NFAT-GFP ASSAY Positive Cell lines: KG1” value (SIR-expressing Jurkat-NFAT-GFP cells cocultured with KG1) was “KG1 (+/−)”. The “NFAT-GFP ASSAY Positive Cell lines: RAJI” value (SIR-expressing Jurkat-NFAT-GFP cells cocultured with RAJI) is “RAJI (+/−), HL60”. The “NFAT-GFP ASSAY Positive Cell lines: THP1” value (SIR-expressing Jurkat-NFAT-GFP cells cocultured with THP1) was “+/−”.

B4: 060717-T02 (protein)
chain: MALPVTALLLPLALLLHAARPDIQMTQSPSSLSASVGDRVTINCKASQDINSYLSWFQQKPGKAPKTLIYRANRLVDGVPSRFSGSGSGQDYTLTISSLQPEDFATYYCLQYDEFPLTFGGGTKVEIKLEIQNPDPAVYQLRDSKSSDKSVCLFTDFDSQTNVSQSKDSDVYITDKCVLDMRSMDFKSNSAVAWSNKSDFACANAFNNSIIPEDTFFPSSDVPCDVKLVEKSFETDTNLNFQNLSVIGFRILLLKVAGFNLLMTLRLWSSRAKRSGSGVKQTLNFDLLKLAGDVESNPGPTSMDWIWRILFLVGAATGAHSFEQVQLVQSGAEVKKPGASVKVSCKASGYTFTNYDINWVRQAPGQGLEWIGWIYPGDGSTKYNEKFKAKATLTADTSTSTAYMELRSLRSDDTAVYYCASGYEDAMDYWGQGTTVTVSSTREDLKNVFPPEVAVFEPSKAEIAHTQKATLVCLATGFYPDHVELSWWVNGKEVHSGVCTDPQPLKEQPALNDSRYCLSSRLRVSATFWQNPRNHFRCQVQFYGLSENDEWTQDRAKPVTQIVSAEAWGRADCGITSASYHQGVLSATILYEILLGKATLYAVLVSALVLMAMVKRKDSRGRAKRSGSGATNFSLLKQAGDVEENPGPSRGHMTEYKPTVRLATRDDVPRAVRTLAAAFADYPATRHTVDPDRHIERVTELQELFLTRVGLDIGKVWVADDGAAVAVWTTPESVEAGAVFAEIGPRMAELSGSRLAAQQQMEGLLAPHRPKEPAWFLATVGVSPDHQGKGLGSAVVLPGVEAAERAGVPAFLETSAPRNLPFYERLGFTVTADVEVPEGPRTWCMTRKPGA
As for B4, the “NFAT-GFP ASSAY Positive Cell lines: HL60” value is listed as “HL60 (2+)”.

B5: 022217-X03 (protein)
chain: MALPVTALLLPLALLLHAARPLEGKPIPNPLLGLDSTGSGEDLKNVFPPEVAVFEPSKAEIAHTQKATLVCLATGFYPDHVELSWWVNGKEVHSGVCTDPQPLKEQPALNDSRYCLSSRLRVSATFWQNPRNHFRCQVQFYGLSENDEWTQDRAKPVTQIVSAEAWGRADCGITSASYHQGVLSATILYEILLGKATLYAVLVSALVLMAMVKRKDSRGRAKRSGSGATNFSLLKQAGDVEENPGPTSMALPVTALLLPLALLLHAARPDIQMTQSPSSLSASVGDRVTINCKASQDINSYLSWFQQKPGKAPKTLIYRANRLVDGVPSRFSGSGSGQDYTLTISSLQPEDFATYYCLQYDEFPLTFGGGTKVEIKGGGGSGGGGSGGGGSQVQLVQSGAEVKKPGASVKVSCKASGYTFTNYDINWVRQAPGQGLEWIGWIYPGDGSTKYNEKFKAKATLTADTSTSTAYMELRSLRSDDTAVYYCASGYEDAMDYWGQGTTVTVSSTREQKLISEEDGSGIQNPDPAVYQLRDSKSSDKSVCLFTDFDSQTNVSQSKDSDVYITDKCVLDMRSMDFKSNSAVAWSNKSDFACANAFNNSIIPEDTFFPSSDVPCDVKLVEKSFETDTNLNFQNLSVIGFRILLLKVAGFNLLMTLRLWSSRAKRSGSGVKQTLNFDLLKLAGDVESNPGPSRGHMTEYKPTVRLATRDDVPRAVRTLAAAFADYPATRHTVDPDRHIERVTELQELFLTRVGLDIGKVWVADDGAAVAVWTTPESVEAGAVFAEIGPRMAELSGSRLAAQQQMEGLLAPHRPKEPAWFLATVGVSPDHQGKGLGSAVVLPGVEAAERAGVPAFLETSAPRNLPFYERLGFTVTADVEVPEGPRTWCMTRKPGA
As for B5, the “NFAT-GFP ASSAY Positive Cell lines: U266” value (SIR-expressing Jurkat-NFAT-GFP cells cocultured with U266) is recorded as “U266 (+/−)”.

B6: 090116-F02 (protein)
chain: MALPVTALLLPLALLLHAARPLEGKPIPNPLLGLDSTGSGEDLKNVFPPEVAVFEPSKAEIAHTQKATLVCLATGFYPDHVELSWWVNGKEVHSGVCTDPQPLKEQPALNDSRYCLSSRLRVSATFWQNPRNHFRCQVQFYGLSENDEWTQDRAKPVTQIVSAEAWGRADCGITSASYHQGVLSATILYEILLGKATLYAVLVSALVLMAMVKRKDSRGRAKRSGSGATNFSLLKQAGDVEENPGPTSMALPVTALLLPLALLLHAARPDDIVMTQSPDSLTVSLGERTTINCKSSQSVLDSSKNKNSLAWYQQKPGQPPKLLLSWASTRESGIPDRFSGSGSGTDFTLTIDSLQPEDSATYYCQQSAHFPITFGQGTRLEIKGGGGSGGGGSGGGGSQVQLVQSGAEVKKPGASVKVSCKASGYTFTNYGMNWVKQAPGQGLKWMGWINTYTGEPTYADDFKGRVTMTSDTSTSTAYLELHNLRSDDTAVYYCARWSWSDGYYVYFDYWGQGTTVTVSSTREQKLISEEDGSGIQNPDPAVYQLRDSKSSDKSVCLFTDFDSQTNVSQSKDSDVYITDKCVLDMRSMDFKSNSAVAWSNKSDFACANAFNNSIIPEDTFFPSSDVPCDVKLVEKSFETDTNLNFQNLSVIGFRILLLKVAGFNLLMTLRLWSSRAKRSGSGVKQTLNFDLLKLAGDVESNPGPSRGHMTEYKPTVRLATRDDVPRAVRTLAAAFADYPATRHTVDPDRHIERVTELQELFLTRVGLDIGKVWVADDGAAVAVWTTPESVEAGAVFAEIGPRMAELSGSRLAAQQQMEGLLAPHRPKEPAWFLATVGVSPDHQGKGLGSAVVLPGVEAAERAGVPAFLETSAPRNLPFYERLGFTVTADVEVPEGPRTWCMTRKPGA
modifications: Synthetic Immune Receptor (SIR)
B6: the “NFAT-GFP ASSAY Positive Cell lines: HL60” value is listed as “HL60 (+/−)”.
